Assay results taken from US7078382 (dated 2006).

Legend:
[1] = biological target: T1, Flt-IgG (human, UniProt P17948 27-758, limits assumed); assay: competition ELISA, biotinylated native VEGF as tracer, Flt-IgG captured by anti-human Fc
T1 construct: Only described as 'a chimeric Flt-human Fc molecule'; captured by rabbit F(ab')2 to human IgG Fc; also called chimeric Flt-human Fc molecule; not shown: human IgG Fc

[2] = biological target: KDR receptor on human umbilical vein endothelial cells (HUVEC) (human, UniProt P35968 20-1356); assay: cell-based or functional assay
Sequence of KDR receptor on human umbilical vein endothelial cells (HUVEC) (P35968 20-1356): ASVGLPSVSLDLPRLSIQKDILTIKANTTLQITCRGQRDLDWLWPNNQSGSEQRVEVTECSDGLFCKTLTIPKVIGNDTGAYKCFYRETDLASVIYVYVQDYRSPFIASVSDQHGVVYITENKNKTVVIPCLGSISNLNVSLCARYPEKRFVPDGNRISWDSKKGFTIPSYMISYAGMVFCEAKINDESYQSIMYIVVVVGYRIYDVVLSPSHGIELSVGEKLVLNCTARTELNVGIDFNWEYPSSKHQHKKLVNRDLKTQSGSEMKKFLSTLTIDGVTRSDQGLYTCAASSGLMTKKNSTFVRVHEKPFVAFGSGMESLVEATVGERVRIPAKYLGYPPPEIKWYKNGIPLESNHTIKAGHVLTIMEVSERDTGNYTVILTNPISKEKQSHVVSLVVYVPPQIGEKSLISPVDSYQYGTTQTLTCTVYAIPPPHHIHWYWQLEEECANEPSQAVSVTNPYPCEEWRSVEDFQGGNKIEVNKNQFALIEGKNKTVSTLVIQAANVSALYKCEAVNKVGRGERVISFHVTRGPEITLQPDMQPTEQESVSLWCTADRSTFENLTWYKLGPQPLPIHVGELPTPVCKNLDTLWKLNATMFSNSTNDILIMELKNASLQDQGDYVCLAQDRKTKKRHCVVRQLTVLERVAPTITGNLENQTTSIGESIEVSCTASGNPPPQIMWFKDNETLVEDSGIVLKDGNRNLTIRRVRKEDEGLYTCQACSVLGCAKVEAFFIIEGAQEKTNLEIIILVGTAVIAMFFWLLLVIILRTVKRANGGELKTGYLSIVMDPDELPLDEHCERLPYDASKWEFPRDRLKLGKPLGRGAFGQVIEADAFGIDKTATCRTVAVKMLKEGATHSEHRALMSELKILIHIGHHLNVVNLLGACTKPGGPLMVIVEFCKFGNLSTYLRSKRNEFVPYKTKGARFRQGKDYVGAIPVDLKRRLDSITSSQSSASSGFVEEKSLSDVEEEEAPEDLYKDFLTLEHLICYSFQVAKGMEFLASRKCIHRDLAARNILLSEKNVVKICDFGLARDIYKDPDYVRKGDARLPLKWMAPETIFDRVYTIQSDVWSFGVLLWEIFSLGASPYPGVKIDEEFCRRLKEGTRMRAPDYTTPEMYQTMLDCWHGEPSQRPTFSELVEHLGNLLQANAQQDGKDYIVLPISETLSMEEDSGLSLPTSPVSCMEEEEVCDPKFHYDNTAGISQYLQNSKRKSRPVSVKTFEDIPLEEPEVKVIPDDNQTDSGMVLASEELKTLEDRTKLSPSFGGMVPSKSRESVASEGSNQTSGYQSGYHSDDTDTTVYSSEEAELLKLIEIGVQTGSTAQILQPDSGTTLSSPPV

[3] = biological target: FLT-1 receptor (RIA of Example 11) (UniProt P17948 27-758, limits assumed); assay: RIA essentially as in Muller et al. 1997
Sequence of FLT-1 receptor (RIA of Example 11) (P17948 27-758 limits assumed): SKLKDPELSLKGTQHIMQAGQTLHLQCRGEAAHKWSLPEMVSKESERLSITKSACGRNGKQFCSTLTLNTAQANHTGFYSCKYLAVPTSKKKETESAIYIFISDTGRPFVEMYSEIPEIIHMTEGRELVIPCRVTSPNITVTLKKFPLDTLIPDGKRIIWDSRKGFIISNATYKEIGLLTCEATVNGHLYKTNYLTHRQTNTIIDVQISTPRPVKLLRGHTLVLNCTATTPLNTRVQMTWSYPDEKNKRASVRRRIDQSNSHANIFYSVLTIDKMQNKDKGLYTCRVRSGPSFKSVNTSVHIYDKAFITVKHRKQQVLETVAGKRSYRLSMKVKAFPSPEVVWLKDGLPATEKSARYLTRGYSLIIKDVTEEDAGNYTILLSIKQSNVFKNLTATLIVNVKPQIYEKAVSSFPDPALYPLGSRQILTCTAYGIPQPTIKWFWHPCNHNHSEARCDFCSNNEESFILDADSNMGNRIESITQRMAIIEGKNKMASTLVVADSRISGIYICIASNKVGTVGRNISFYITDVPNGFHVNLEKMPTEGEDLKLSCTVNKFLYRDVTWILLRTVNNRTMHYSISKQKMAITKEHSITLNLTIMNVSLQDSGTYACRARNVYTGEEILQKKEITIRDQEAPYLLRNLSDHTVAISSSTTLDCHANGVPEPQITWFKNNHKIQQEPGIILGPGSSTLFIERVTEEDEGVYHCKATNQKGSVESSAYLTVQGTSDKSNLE

[4] = biological target: KDR receptor (RIA of Example 11) (UniProt P35968 20-764, limits assumed); assay: RIA essentially as in Muller et al. 1997
Sequence of KDR receptor (RIA of Example 11) (P35968 20-764 limits assumed): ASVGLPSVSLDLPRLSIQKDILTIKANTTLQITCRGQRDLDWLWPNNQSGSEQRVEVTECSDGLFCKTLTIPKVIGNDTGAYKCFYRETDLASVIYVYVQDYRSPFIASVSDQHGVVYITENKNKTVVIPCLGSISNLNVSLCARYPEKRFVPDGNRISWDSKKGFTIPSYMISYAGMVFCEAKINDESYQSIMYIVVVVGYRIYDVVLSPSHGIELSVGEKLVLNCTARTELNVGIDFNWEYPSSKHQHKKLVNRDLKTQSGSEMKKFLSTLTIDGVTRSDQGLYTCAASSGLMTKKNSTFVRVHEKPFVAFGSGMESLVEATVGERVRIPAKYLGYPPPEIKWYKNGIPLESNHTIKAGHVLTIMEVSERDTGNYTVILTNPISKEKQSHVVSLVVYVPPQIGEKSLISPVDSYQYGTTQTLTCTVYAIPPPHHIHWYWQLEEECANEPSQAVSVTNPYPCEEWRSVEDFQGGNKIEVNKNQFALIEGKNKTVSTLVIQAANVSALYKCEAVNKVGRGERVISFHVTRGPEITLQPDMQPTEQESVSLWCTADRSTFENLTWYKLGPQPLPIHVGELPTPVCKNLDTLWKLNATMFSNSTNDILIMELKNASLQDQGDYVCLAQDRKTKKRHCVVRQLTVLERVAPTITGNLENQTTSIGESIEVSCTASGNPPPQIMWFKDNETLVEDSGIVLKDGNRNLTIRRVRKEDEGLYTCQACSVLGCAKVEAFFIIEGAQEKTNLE

[5] = biological target: KDR receptor with a gD tag at the N-terminus, on CHO cells (UniProt P35968 20-1356); assay: cell-based or functional assay
[6] = biological target: T2, KDR (1-3) (UniProt P35968 20-327, limits assumed); assay: competition ELISA, biotinylated native VEGF (8-109) as tracer, KDR (1-3) captured by mAb MAKD5
T2 construct: domain: KDR (1-3); Soluble KDR (1-3) at 1 ug/ml, captured on the plate by anti-KDR monoclonal antibody MAKD5; also called KDR (1-3) monomer
T2 sequence (P35968 20-327 limits assumed): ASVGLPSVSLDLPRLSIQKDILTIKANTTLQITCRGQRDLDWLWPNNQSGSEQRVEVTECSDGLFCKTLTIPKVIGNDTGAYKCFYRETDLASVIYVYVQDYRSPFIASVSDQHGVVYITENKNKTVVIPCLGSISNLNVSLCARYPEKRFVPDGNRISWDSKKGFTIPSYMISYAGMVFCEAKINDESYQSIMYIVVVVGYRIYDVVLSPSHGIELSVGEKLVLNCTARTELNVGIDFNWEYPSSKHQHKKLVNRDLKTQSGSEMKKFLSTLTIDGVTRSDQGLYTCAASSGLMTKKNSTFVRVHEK

T1 sequence (P17948 27-758 limits assumed): as the sequence (P17948 27-758 limits assumed) above

B1: LK-VRB-1s* (ligand)
chain: APMAEGGGQNHHEVVKFEDVLRRSSCHPIETLVDIFQEYPDEIEYIFKPSCVPLMRCGGCCNDEGLECVPTEESNITMQIMRIKPHQGQHIGEMSFLQHNKCECRPKKD
**Q.** Which IC50 [1] does the source give for B1 here?
**A.** 2700 nM

**Q.** What about the “Relative Binding Affinity” value [1] of the same binder?
**A.** 6000 fold of native VEGF (8-109)

**Q.** What about the “Endothelial Cell Proliferation Activity (HUVEC, 3H-thymidine), concentration” value [2] of the same binder?
**A.** 0.1 nM

**Q.** And the “Endothelial Cell Proliferation Activity (HUVEC, 3H-thymidine), ratio to native VEGF (8-109)” value [2]?
**A.** 0.2 fold of native VEGF (8-109)

**Q.** What about the “Relative Binding Affinity” value [3] of the same binder?
**A.** 14000 fold of native VEGF 165

**Q.** And the “Relative Binding Affinity” value [4]?
**A.** 20 fold of native VEGF 165

**Q.** What about the “Phosphorylation-Inducing Activity (KIRA), concentration at midpoint” value [5] of the same binder?
**A.** 1 nM

**Q.** And the “Phosphorylation-Inducing Activity (KIRA), ratio to native VEGF (8-109)” value [5]?
**A.** 0.5 fold of native VEGF (8-109)

**Q.** And the IC50 [6]?
**A.** 1 nM

**Q.** And the “Relative Binding Affinity” value [6]?
**A.** 1 fold of native VEGF (8-109)
